Source: PMC314469, “Protein Interaction Networks by Proteome Peptide Scanning” (PLoS Biology, 2004)

T1: Rvs167 SH3 (RV167_YEAST), P39743
T1 chain: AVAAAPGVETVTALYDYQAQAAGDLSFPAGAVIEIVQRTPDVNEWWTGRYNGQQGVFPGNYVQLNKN

T2: Boi2 SH3 (BOI2_YEAST), P39969
T2 chain: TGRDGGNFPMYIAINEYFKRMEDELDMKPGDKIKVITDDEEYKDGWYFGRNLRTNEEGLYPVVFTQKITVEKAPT

T3: Boi1 SH3 (BOI1_YEAST), P38041
T3 chain: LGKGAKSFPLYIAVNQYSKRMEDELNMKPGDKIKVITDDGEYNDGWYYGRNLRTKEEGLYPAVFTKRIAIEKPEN

T4: Yhr016c SH3 (YSC84_YEAST), P32793
T4 chain: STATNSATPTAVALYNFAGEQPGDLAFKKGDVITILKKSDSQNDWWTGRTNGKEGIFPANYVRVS

T5: Yfr024 SH3 (LSB3_YEAST), P43603
T5 chain: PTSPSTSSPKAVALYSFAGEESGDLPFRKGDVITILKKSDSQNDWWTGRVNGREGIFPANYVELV


Key:
Assay in all cases: SPOT array
[1] = biological target: T1, Rvs167 SH3 (RV167_YEAST), P39743
[2] = biological target: T2, Boi2 SH3 (BOI2_YEAST), P39969
[3] = biological target: T3, Boi1 SH3 (BOI1_YEAST), P38041
[4] = biological target: T4, Yhr016c SH3 (YSC84_YEAST), P32793
[5] = biological target: T5, Yfr024 SH3 (LSB3_YEAST), P43603

Binder	normalised SPOT signal, Boehringer light units (BLU); mean over the file's lines of this peptide [1]	normalised SPOT signal, Boehringer light units (BLU); mean over the file's lines of this peptide [2]	normalised SPOT signal, Boehringer light units (BLU); mean over the file's lines of this peptide [3]	normalised SPOT signal, Boehringer light units (BLU); mean over the file's lines of this peptide [4]	normalised SPOT signal, Boehringer light units (BLU); mean over the file's lines of this peptide [5]
IIFPTSPTKLTFSN [YDR130C 112-125]	84.2	13.9	45.5	0	314
IEVPQSPTKNRVKV [YIL150C 61-74]	27.2	19.2	130	201	176
ILKPDIPLRNMLLR [YGL224C 138-151]	1640	60	14700	2420	12900
IIKPYLPFKISKWL [YJR054W 69-82]	68.5	39.8	37.9	169	878
IFGPSFPFRSHIDV [YDL224C 170-183]	391	31.8	138	6610	9630
IFGPFGPMKEVKIL [YDR432W 144-157]	56.3	23.4	63.3	260	195
IIIPPIPSKHSLLK [YDR425W 171-184]	22.6	50	92.9	204	3190
IAHPVRPHRAITMT [YBR276C 631-644]	86.7	145	3310	225	2660
IINPDTPHRRIFNQ [YBL019W 264-277]	157	71.9	314	530	1670
IAYPFYPFKKLGRQ [YGR165W 32-45]	16.3	32.7	75.8	230	813
IHSPRIPSKDEFIA [YER091C 704-717]	73.2	42	88.8	187	224
IFDPQDPYRRAQQF [YHR150W 496-509]	52.4	51.8	53.2	316	59.9
IAYPGDPLRFHSHL [YAR008W 207-220]	18.3	143	12	196	93.2
IFPPLNPARTSLNS [YDR312W 172-185]	134	31.3	72.9	829	5080
IIFPYDPLKLGTHA [YBR163W 509-522]	82.3	12.7	22.3	55.6	17.2

The remaining lines, values ahead:

normalised SPOT signal, Boehringer light units (BLU); mean over the file's lines of this peptide [1]	normalised SPOT signal, Boehringer light units (BLU); mean over the file's lines of this peptide [2]	normalised SPOT signal, Boehringer light units (BLU); mean over the file's lines of this peptide [3]	normalised SPOT signal, Boehringer light units (BLU); mean over the file's lines of this peptide [4]	normalised SPOT signal, Boehringer light units (BLU); mean over the file's lines of this peptide [5]	Binder
23.6	33.5	95.1	63.1	86	IIGPDEPEKSLILK [YMR066W 43-56]
22.8	38.1	105	198	391	IKYPGSPQRSSSFS [YMR036C 139-152]
65.5	36	30.1	238	209	IFFPNEPIRFVYPY [YPR072W 415-428]
28.2	26.4	119	51.4	149	IEQPFGPPKITKDG [YLR259C 61-74]
61.8	57.1	95.5	122	170	IFNPQNPLKTGFEP [YMR087W 156-169]
20.5	23.2	126	77.2	0	IELPHDPHKHFHRD [YNL091W 543-556]
47	20.1	41.7	112	550	IELPTQPVRKNPEA [YOR042W 147-160]
